# Measured values taken from patent publication US7208572B2, “Leptin-related peptides” (Albany Medical College, priority 1998, dated 2007).
# Target: T1, OB-Rb (Mus musculus, UniProt P48356)
# T1 construct: full-length leptin receptor (OB-Rb), the receptor isoform predominantly expressed in the hypothalamus; expressed in transfected cells; host or cells: GT1-7
# T1 sequence (P48356 22-1162): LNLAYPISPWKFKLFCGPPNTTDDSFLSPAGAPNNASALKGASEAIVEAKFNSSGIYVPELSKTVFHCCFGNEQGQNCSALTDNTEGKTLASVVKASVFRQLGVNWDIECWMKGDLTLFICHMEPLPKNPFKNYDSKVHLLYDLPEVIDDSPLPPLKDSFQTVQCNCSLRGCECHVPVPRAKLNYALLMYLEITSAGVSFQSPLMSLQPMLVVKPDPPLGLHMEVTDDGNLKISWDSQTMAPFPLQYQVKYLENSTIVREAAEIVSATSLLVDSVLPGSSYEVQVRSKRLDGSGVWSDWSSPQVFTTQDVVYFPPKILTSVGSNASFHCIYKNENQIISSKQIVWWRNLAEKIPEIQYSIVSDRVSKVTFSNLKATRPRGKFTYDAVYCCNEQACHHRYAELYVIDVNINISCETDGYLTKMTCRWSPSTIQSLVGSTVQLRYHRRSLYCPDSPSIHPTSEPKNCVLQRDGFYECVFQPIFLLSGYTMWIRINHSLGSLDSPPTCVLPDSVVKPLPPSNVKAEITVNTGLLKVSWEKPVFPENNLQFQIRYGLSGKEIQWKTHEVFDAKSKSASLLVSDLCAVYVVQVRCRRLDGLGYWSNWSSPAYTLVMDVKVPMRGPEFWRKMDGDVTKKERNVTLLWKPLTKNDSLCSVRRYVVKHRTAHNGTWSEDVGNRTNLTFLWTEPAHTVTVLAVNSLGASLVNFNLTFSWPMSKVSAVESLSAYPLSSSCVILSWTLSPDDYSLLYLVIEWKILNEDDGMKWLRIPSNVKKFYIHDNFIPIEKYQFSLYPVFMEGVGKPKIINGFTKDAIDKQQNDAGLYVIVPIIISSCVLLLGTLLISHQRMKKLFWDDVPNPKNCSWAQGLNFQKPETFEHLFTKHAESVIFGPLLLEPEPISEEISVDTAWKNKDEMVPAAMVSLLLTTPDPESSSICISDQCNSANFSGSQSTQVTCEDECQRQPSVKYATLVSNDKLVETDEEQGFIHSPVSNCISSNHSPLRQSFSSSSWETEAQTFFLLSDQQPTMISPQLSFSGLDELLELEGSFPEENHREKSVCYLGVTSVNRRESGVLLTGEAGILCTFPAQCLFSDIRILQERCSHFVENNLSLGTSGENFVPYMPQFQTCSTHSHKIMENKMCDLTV
# Assay: SEAP reporter gene signal transduction assay in GT1–7 cells cotransfected with HRRE-SEAP and OB-Rb
# Assay type: cell-based
# Settings: peptide 1 to 250 uM, 24 h
# Description: Initial experiments to determine the mechanism of action of LEP(116–130) utilized two highly sensitive in vitro bioassays routinely used to assess leptin binding and receptor activation (see e.g., White, et al., 1997. Proc. Natl. Acad. Sci. U.S.A. 94: 10657–10662). An alkaline phosphatase (“AP”)-leptin (“OB”) fusion protein (“AP-OB”) was used to measure inhibition of leptin binding in the absence or presence of recombinant mouse leptin (positive control) or peptide, by COS-7 cells transfected with the long (signaling) form of the mouse OB receptor (“OB-RL”). Signal transduction assays were done in GT1–7 cells cotransfected with AP reporter and OB-RL constructs. Secreted alkaline phosphatase (“SEAP”) activity in response to stimulation with mouse leptin or peptide was measured by chemiluminescence.
# Two days after transfection, the cells were stimulated with mouse leptin or leptin-related synthetic peptides for 24 hours. Growth media were harvested and SEAP activity was determined by chemiluminescence as described for AP-OB binding studies.
# COS-7 and GT1–7 cells were cultured in DMEM supplemented with 10% fetal bovine serum, and transfected by the lipofectamine method. […] Supernatants were collected and SEAP reporter activities were measured by chemiluminescence using the GreatEscApe alkaline phosphatase detection kit as described by the manufacturer (CLONTECH). […]
sequence,measurement,value
A L S R L Q G S L Q D I L Q Q (ALSRLQGSLQDILQQ) [LEP(146–160)],Stimulation of SEAP reporter activity,incapable of inducing an increase in reporter gene activity
